For seven molecules, Ki results are on record in patent US5807824A, “C5A receptor antagonists having substantially no agonist activity” (priority 1995, dated 1998).

One may read the Ki as a measure of affinity in units of concentration, obtained from inhibition or displacement. A low value points to higher affinity.

T1: C5a receptor (Homo sapiens, UniProt P21730)
T1 construct: Neutrophils were purified from human peripheral blood; endogenous in cells; host or cells: neutrophils from human peripheral blood
T1 sequence (P21730 1-350): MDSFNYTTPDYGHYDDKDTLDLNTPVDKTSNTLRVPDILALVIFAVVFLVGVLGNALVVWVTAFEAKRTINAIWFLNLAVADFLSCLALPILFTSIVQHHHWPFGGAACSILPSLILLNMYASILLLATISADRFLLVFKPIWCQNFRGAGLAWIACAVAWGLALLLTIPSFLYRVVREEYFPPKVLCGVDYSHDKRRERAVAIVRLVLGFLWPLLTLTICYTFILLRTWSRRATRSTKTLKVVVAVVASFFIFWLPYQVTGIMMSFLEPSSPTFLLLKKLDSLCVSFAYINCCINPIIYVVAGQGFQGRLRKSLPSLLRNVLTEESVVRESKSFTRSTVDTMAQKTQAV

B1: 8 Cys: cysteine-adduct of the C5a analogue No. 8 (protein, UniProt P01031 678-751, looked up, variant T1M C27S Q71C)
C5a anaphylatoxin: MLQKKIEEIAAKYKHSVVKKCCYDGASVNNDETCEQRAARISLGPRCIKAFTECCVVASQLRANISHKDMCLGR
modifications: C5a anaphylatoxin cysteine adduct
B2: C5a (1-71, T1M, C275, Q71H) (protein, UniProt P01031 678-751, looked up, variant T1M C27S Q71H)
C5a anaphylatoxin: MLQKKIEEIAAKYKHSVVKKCCYDGASVNNDETCEQRAARISLGPRCIKAFTECCVVASQLRANISHKDMHLGR
modifications: C5a anaphylatoxin
notes: agonist, included for comparison
B3: C5a (1-71, T1M, C27S) (protein, UniProt P01031 678-751, looked up, variant T1M C27S)
C5a anaphylatoxin: MLQKKIEEIAAKYKHSVVKKCCYDGASVNNDETCEQRAARISLGPRCIKAFTECCVVASQLRANISHKDMQLGR
modifications: C5a anaphylatoxin
notes: as for B2
B4: C5a (1-71, T1M, C275, Q71L) (protein, UniProt P01031 678-751, looked up, variant T1M C27S Q71L)
C5a anaphylatoxin: MLQKKIEEIAAKYKHSVVKKCCYDGASVNNDETCEQRAARISLGPRCIKAFTECCVVASQLRANISHKDMLLGR
modifications: C5a anaphylatoxin
notes: as for B2
B5: C5a (1-71, T1M, C27S, Q71R) (protein, UniProt P01031 678-751, looked up, variant T1M C27S Q71R)
C5a anaphylatoxin: MLQKKIEEIAAKYKHSVVKKCCYDGASVNNDETCEQRAARISLGPRCIKAFTECCVVASQLRANISHKDMRLGR
modifications: C5a anaphylatoxin truncated to residues 1-71
notes: as for B2
B6: C5a (1-71, T1M, C27S, Q71S) (protein, UniProt P01031 678-751, looked up, variant T1M C27S Q71S)
C5a anaphylatoxin: MLQKKIEEIAAKYKHSVVKKCCYDGASVNNDETCEQRAARISLGPRCIKAFTECCVVASQLRANISHKDMSLGR
modifications: C5a anaphylatoxin
notes: as for B2
B7: C5a (1-71, T1M, C275, Q71D) (protein, UniProt P01031 678-751, looked up, variant T1M C27S Q71D)
C5a anaphylatoxin: MLQKKIEEIAAKYKHSVVKKCCYDGASVNNDETCEQRAARISLGPRCIKAFTECCVVASQLRANISHKDMDLGR
modifications: C5a anaphylatoxin
notes: as for B2

For the experiment, the target named is T1, C5a receptor. As to the kind of experiment: Receptor binding assay: displacement of [125I]Bolton-Hunter labelled C5a from PMNL membranes. Particulars: Table 4; [125I]BH-C5a 4.0 pM, PMNL membranes, Cheng-Prusoff. As to the method: C5a and C5a receptor antagonists were tested for their affinity for the C5a receptor. […] PMNLs were resuspended in Hanks balanced salt solution, without Ca^++ and Mg^++ and which contained 10 mM HEPES at pH 7.3, 2.5 mM MgCl2, 100 units/ml DNAse I, 0.1 mM PMSF, 10 μg/ml aprotonin and 10 μg/ml leupeptin. They were then equilibrated at 400 psi for 20 min at 4° C. in a nitrogen cavitation bomb. After evacuation into 3 volumes 0.5M KHCO3 containing 25 mM EDTA and the protease inhibitors listed above, the gelatinous material was removed with forceps and the mixture was centrifuged at 400×g for 10 min at 4° C. The resulting supernatant was centrifuged at 50,000×g for 60 min at 4° C. The pellets from the aliquots representing 200×10^6 cells were stored at -70° C. For binding studies, these membranes were resuspended at an equivalent of 20×10^6 cells/ml in 50 mM HEPES at pH 7.3, containing 1 mM CaCl2, 5 mM MgCl2, 0.1 mM PMSF, 0.1% bacitracin and 0.5% BSA.
Nonspecific binding was determined in the presence of 10 nM unlabelled C5a. The binding reaction was initiated by the addition of the PMNL membranes and was continued for 120 min at 4° C. Bound and free radioactivity were separated by vacuum filtration through GF/C glass fiber filters (Whatman), pretreated for 90 min with 0.05% PEI (polyethyleneimine) using a Cell Harvester (Brandel, Gaithersburg, Md.). Filters were washed with 3×5 ml of ice-cold 5 mM Tris buffer at pH 7.4 and counted in a multiwell Gamma counter (Genesys). Data were analyzed using the non-linear regression analysis program, RS/1 (Bolt, Beranek and Newman, Boston) and expressed as IC50 values. The results are set forth below in Table 4 as Ki values using the Cheng-Presoff equation. See Braunwalder et al., supra.
(Loss of bound radioactivity is the signal in a displacement assay; it reports binding, not function.)
Take B1: the affinity corresponds to a Ki of 2.8 nM.

Regarding B2, affinity was put at a Ki of 0.15 nM.

Regarding B3, the affinity corresponds to a Ki of 3 nM.

Consider B4, for which the inhibition constant Ki is 0.035 nM.

B5 showed a Ki of 0.35 nM.

Consider B6, for which the inhibition constant (Ki) was found to be 7.5 nM.

Regarding B7, the affinity corresponds to a Ki of 8.5 nM.
